This passage reports binding result and Kd results from patent publication US20200262917A1 (Daiichi Sankyo, published 2020).

Assay [1] addresses T1, human LAG-3 (full length, expressed on cells) (human, UniProt P18627 23-525).
T1 construct: also called CD223; hLAG-3
T1 sequence: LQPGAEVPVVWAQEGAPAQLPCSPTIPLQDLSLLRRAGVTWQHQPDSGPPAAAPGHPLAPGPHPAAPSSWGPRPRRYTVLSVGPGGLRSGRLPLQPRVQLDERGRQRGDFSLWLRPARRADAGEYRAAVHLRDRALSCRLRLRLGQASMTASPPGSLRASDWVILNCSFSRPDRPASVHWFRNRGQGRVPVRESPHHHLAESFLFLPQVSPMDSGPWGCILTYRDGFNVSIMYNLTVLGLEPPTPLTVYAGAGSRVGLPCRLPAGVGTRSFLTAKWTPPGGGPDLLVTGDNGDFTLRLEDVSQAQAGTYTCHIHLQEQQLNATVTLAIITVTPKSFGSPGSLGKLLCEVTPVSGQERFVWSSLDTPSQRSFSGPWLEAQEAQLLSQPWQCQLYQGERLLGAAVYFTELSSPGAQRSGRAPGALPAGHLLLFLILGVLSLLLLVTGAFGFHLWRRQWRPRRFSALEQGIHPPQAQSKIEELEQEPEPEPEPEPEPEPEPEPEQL
In words: flow cytometry on 293T-lacZ cells expressing human LAG-3. (In flow cytometry, cells or beads pass a laser one at a time.)

Assay [2] addresses T2, LAG-3_D3D4-His: 3rd and 4th extracellular immunoglobulin-like domains (263-450) of human LAG-3 with … (UniProt P18627 263-450).
T2 chain: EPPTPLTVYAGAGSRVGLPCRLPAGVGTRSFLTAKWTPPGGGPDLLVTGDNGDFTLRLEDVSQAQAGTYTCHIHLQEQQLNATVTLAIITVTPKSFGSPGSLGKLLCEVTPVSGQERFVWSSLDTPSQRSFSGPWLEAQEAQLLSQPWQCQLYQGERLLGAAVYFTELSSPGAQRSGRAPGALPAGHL
In words: SPR (Biacore T200). For orientation: In SPR one partner is held on a chip, and binding of the other changes the refractive index at the surface.

A word on the Kd: it is the constant that tells how readily two partners part at equilibrium.

B1: humanized anti-human LAG-3 antibody hLA212_H3/L2 (antibody, human IgG1, kappa, V domains shown)
VH: EVQLVESGGGLVQPGGSLRLSCAASGFTYRSYVMAWVRQAPGKGLEWVASISTGGGNTYYRDSVKGRFTISRDNAKNTLYLQMDSLRAEDTAVYYCAEDMSNSGYGLFDYWGQGTLVTVSS
VL: DIQMTQSPSSLSASVGDRVTITCKAGQNVDNNIAWYQQKPGQSPKLLIYYASNRNTGVPSRFSGSGYGTDFTLTISSLQPEDFATYYCQRISNSPYTFGQGTKVEIKR
notes: Human IgG1/kappa; not in a low fucose form; also called humanized hLA212_H3/L2
On to B1, for which the binding result in assay [1] was “binds”. In assay [2], this molecule came in with a Kd of 0.062 nM.

B2: humanized anti-human LAG-3 antibody hLA212_H2/L5 (antibody, human IgG1, kappa, V domains shown)
VH: EVQLVESGGGLVQPGGSLRLSCAASGFTYRSYVMAWVRQAPGKGLEWVGSISTGGGNTYYRDSVKGRFTISRDNAKNTLYLQMNSLRAEDTAVYYCAEDMSNSGYGLFDYWGQGTLVTVSS
VL: NIQMTQSPSSMSISVGDRVTMTCKAGQNVDNNIAWYQKKPGQSPKLLIYYASNRNTGVPDRFSGGGYGTDFTLTISSVQPEDAAFYYCQRISNSPYTFGQGTKLELKR
notes: Human IgG1/kappa; also called humanized hLA212_H2/L5
As to B2, in assay [1], the binding result is on record as “binds”. In assay [2], binding was characterised by a dissociation constant (Kd) of 0.12 nM.

B3: human chimeric anti-LAG-3 antibody cLA212 (antibody, human IgG1, V domains shown)
VH: EVQLVESGGGLVQPGRSLKLSCAASGFTYRSYVMAWVRQAPTRGLEWVASISTGGGNTYYRDSVKGRFTISRDNAKNTLYLQMDSLRSEDTATYYCAEDMSNSGYGLFDYWGQGVMVTVSS
VL: NIVMTQSPKSMSISVGDRVTMNCKAGQNVDNNIAWYQKKPGQSPKLLIYYASNRNTGVPDRFTGGGYGTDFTLTINSVQAEDAAFYYCQRISNSPYTFGAGTELELKR
notes: Human IgG1/kappa chimera; The C-terminal ends 470 and 234 are inferred from the humanized chains, which differ from cLA212 by substitutions only; also called rLA212 human chimeric antibody
Consider B3, for which, in assay [1], the binding result is listed as “binds”.

B4: humanized anti-human LAG-3 antibody hLA212_H3/L3 (antibody, human IgG1, kappa, V domains shown)
VH: EVQLVESGGGLVQPGGSLRLSCAASGFTYRSYVMAWVRQAPGKGLEWVASISTGGGNTYYRDSVKGRFTISRDNAKNTLYLQMDSLRAEDTAVYYCAEDMSNSGYGLFDYWGQGTLVTVSS
VL: NIQMTQSPSSLSASVGDRVTITCKAGQNVDNNIAWYQKKPGQSPKLLIYYASNRNTGVPDRFSGGGYGTDFTLTISSLQPEDFAFYYCQRISNSPYTFGQGTKVEIKR
notes: Human IgG1/kappa; also called humanized hLA212_H3/L3
Turning to B4, the binding result in assay [1] was “binds”. In addition, the Kd in assay [2] came out at 0.1 nM.

B5: humanized anti-human LAG-3 antibody hLA212_H3/L5 (antibody, human IgG1, kappa, V domains shown)
VH: EVQLVESGGGLVQPGGSLRLSCAASGFTYRSYVMAWVRQAPGKGLEWVASISTGGGNTYYRDSVKGRFTISRDNAKNTLYLQMDSLRAEDTAVYYCAEDMSNSGYGLFDYWGQGTLVTVSS
VL: NIQMTQSPSSMSISVGDRVTMTCKAGQNVDNNIAWYQKKPGQSPKLLIYYASNRNTGVPDRFSGGGYGTDFTLTISSVQPEDAAFYYCQRISNSPYTFGQGTKLELKR
notes: Human IgG1/kappa; also called humanized hLA212_H3/L5
Take B5: in assay [1], the binding result was “binds”. The molecule also yielded a dissociation constant (Kd) in assay [2] of 0.1 nM.

B6: humanized anti-human LAG-3 antibody hLA212_H3/L4 (antibody, human IgG1, kappa, V domains shown)
VH: EVQLVESGGGLVQPGGSLRLSCAASGFTYRSYVMAWVRQAPGKGLEWVASISTGGGNTYYRDSVKGRFTISRDNAKNTLYLQMDSLRAEDTAVYYCAEDMSNSGYGLFDYWGQGTLVTVSS
VL: DIQMTQSPSSMSISVGDRVTMTCKAGQNVDNNIAWYQKKPGQSPKLLIYYASNRNTGVPSRFSGSGSGTDFTLTISSVQPEDFATYYCQRISNSPYTFGQGTKLELKR
notes: Human IgG1/kappa; also called humanized hLA212_H3/L4
As for B6, the binding result in assay [1] was “binds”. This molecule had a Kd in assay [2] of 0.076 nM.

B7: humanized anti-human LAG-3 antibody hLA212_H2/L2 (antibody, human IgG1, kappa, V domains shown)
VH: EVQLVESGGGLVQPGGSLRLSCAASGFTYRSYVMAWVRQAPGKGLEWVGSISTGGGNTYYRDSVKGRFTISRDNAKNTLYLQMNSLRAEDTAVYYCAEDMSNSGYGLFDYWGQGTLVTVSS
VL: DIQMTQSPSSLSASVGDRVTITCKAGQNVDNNIAWYQQKPGQSPKLLIYYASNRNTGVPSRFSGSGYGTDFTLTISSLQPEDFATYYCQRISNSPYTFGQGTKVEIKR
notes: Human IgG1/kappa; also called humanized hLA212_H2/L2
B7: the binding result in assay [1] is listed as “binds”. Also, the affinity in assay [2], expressed as Kd, was 0.12 nM.

B8: humanized anti-human LAG-3 antibody hLA212_H3/L1 (antibody, human IgG1, kappa, V domains shown)
VH: EVQLVESGGGLVQPGGSLRLSCAASGFTYRSYVMAWVRQAPGKGLEWVASISTGGGNTYYRDSVKGRFTISRDNAKNTLYLQMDSLRAEDTAVYYCAEDMSNSGYGLFDYWGQGTLVTVSS
VL: DIQMTQSPSSLSASVGDRVTITCKAGQNVDNNIAWYQQKPGQAPKLLIYYASNRNTGVPSRFSGSGSGTDFTLTISSLQPEDFATYYCQRISNSPYTFGQGTKVEIKR
notes: Human IgG1/kappa; also called humanized hLA212_H3/L1
In the case of B8, the binding result in assay [1] is listed as “binds”. The same molecule returned an equilibrium dissociation constant (Kd) in assay [2] of 0.092 nM.

B9: humanized anti-human LAG-3 antibody hLA212_H2/L3 (antibody, human IgG1, kappa, V domains shown)
VH: EVQLVESGGGLVQPGGSLRLSCAASGFTYRSYVMAWVRQAPGKGLEWVGSISTGGGNTYYRDSVKGRFTISRDNAKNTLYLQMNSLRAEDTAVYYCAEDMSNSGYGLFDYWGQGTLVTVSS
VL: NIQMTQSPSSLSASVGDRVTITCKAGQNVDNNIAWYQKKPGQSPKLLIYYASNRNTGVPDRFSGGGYGTDFTLTISSLQPEDFAFYYCQRISNSPYTFGQGTKVEIKR
notes: Human IgG1/kappa; also called humanized hLA212_H2/L3
B9: in assay [1], the binding result was “binds”. Besides, the affinity in assay [2], expressed as Kd, was 0.15 nM.

B10: humanized anti-human LAG-3 antibody hLA212_H2/L1 (antibody, human IgG1, kappa, V domains shown)
VH: EVQLVESGGGLVQPGGSLRLSCAASGFTYRSYVMAWVRQAPGKGLEWVGSISTGGGNTYYRDSVKGRFTISRDNAKNTLYLQMNSLRAEDTAVYYCAEDMSNSGYGLFDYWGQGTLVTVSS
VL: DIQMTQSPSSLSASVGDRVTITCKAGQNVDNNIAWYQQKPGQAPKLLIYYASNRNTGVPSRFSGSGSGTDFTLTISSLQPEDFATYYCQRISNSPYTFGQGTKVEIKR
notes: Human IgG1/kappa; also called humanized hLA212_H2/L1
Take B10: the binding result in assay [1] was “binds”. In assay [2], the Kd came to 0.11 nM.

B11: humanized anti-human LAG-3 antibody hLA212_H2/L4 (antibody, human IgG1, kappa, V domains shown)
VH: EVQLVESGGGLVQPGGSLRLSCAASGFTYRSYVMAWVRQAPGKGLEWVGSISTGGGNTYYRDSVKGRFTISRDNAKNTLYLQMNSLRAEDTAVYYCAEDMSNSGYGLFDYWGQGTLVTVSS
VL: DIQMTQSPSSMSISVGDRVTMTCKAGQNVDNNIAWYQKKPGQSPKLLIYYASNRNTGVPSRFSGSGSGTDFTLTISSVQPEDFATYYCQRISNSPYTFGQGTKLELKR
notes: Human IgG1/kappa; also called humanized hLA212_H2/L4
Turning to B11, the binding result in assay [1] is recorded as “binds”. The molecule also gave an equilibrium dissociation constant (Kd) in assay [2] of 0.096 nM.
